# US20160367515A1, “Improved delivery of poorly water soluble drugs with aphafetoprotein stabilized with metal ions” (Oy Safemed Ltd., priority 2013, published 2016)
# Where two headings read alike, the source gives them in different places.
# B1: Zn-rhAFP: complex of rhAFP with Zn ions, prepared with 4-fold molar excess of ZnCl2 followed by dialysis (protein, UniProt P02771 19-609, looked up)
# Alpha-fetoprotein: RTLHRNEYGIASILDSYQCTAEISLADLATIFFAQFVQEATYKEVSKMVKDALTAIEKPTGDEQSSGCLENQLPAFLEELCHEKEILEKYGHSDCCSQSEEGRHNCFLAHKKPTPASIPLFQVPEPVTSCEAYEEDRETFMNKFIYEIARRHPFLYAPTILLWAARYDKIIPSCCKAENAVECFQTKAATVTKELRESSLLNQHACAVMKNFGTRTFQAITVTKLSQKFTKVNFTEIQKLVLDVAHVHEHCCRGDVLDCLQDGEKIMSYICSQQDTLSNKITECCKLTTLERGQCIIHAENDEKPEGLSPNLNRFLGDRDFNQFSSGEKNIFLASFVHEYSRRHPQLAVSVILRVAKGYQELLEKCFQTENPLECQDKGEEELQKYIQESQALAKRSCGLFQKLGEYYLQNAFLVAYTKKAPQLTSSELMAITRKMAATAATCCQLSEDKLLACGEGAADIIIGHLCIRHEMTPVNPGVGQCCTSSYANRRPCFSSLVVDETYVPPAFSDDKFIFHKDLCQAQGVALQTMKQEFLINLVKQKPQITEEQLEAVIADFSGLLEKCCQGQEQEVCFAEEGQKLISKTRAALGV
# modifications: zinc ion complex
# B2: eAFP: fetal serum human AFP isolated from human cord serum (protein, UniProt P02771 19-609, looked up)
# Alpha-fetoprotein: B1 Alpha-fetoprotein
# B3: rhAFP: glycosylated wild-type recombinant human alpha-fetoprotein secreted by yeast Saccharomyces cerevisiae (protein, UniProt P02771 19-609, looked up)
# Alpha-fetoprotein: B1 Alpha-fetoprotein
# modifications: expressed in yeast
# notes: glycosylated wild-type recombinant human alpha-fetoprotein secreted by yeast Saccharomyces cerevisiae
# Assays:
# [1] = test system: mammary carcinoma cell line MCF-7; assay: MTS cell viability assay, mammary carcinoma MCF-7 cells; type: cell-based, human; conditions: for Coefficient for drug interaction (CDI): MCF7 + Zn-rhAFP 1.4 μM (Zn:rhAFP 4:1) + drug, 48 h
# Protocol: Effect of binding of Zn ions to rhAFP and sugar-free rhAFPo species was tested by measuring of their dose-dependent tumor-suppressive effect for mammary carcinoma cell line MCF-7 in vitro, as it was earlier described for natural embryonic eAFP (Dudich et al., Eur. J. Biochem. 1999; 266: 750-761). MCF-7 cells were incubated with various doses of rhAFP (rhAFPo), Zn-rhAFP (Zn-rhAFPo) or with natural embryonic eAFP for 48 h, and thereafter their viability was assessed by the colorimetric MTS assay (FIG. 1A).
# Cell viability was assessed by the Promega CellTiter 96 AQueous Non-Radioactive Cell Proliferation MTS assay (Promega, USA) according to manufacturer's instructions. Cells were incubated with various AFP samples for 48 h as described above, followed by incubation with MTS-test reagents and measuring of the light adsorption of the formasan, appeared in the lysed cell supernatants at 492 nm by using VICTOR-1420 multilabel counter (Wallac, Finland). Intact cell cultures incubated without additions were taken as a control. By such a way the quantity of viable cells capable to internalize MTS dye was determined. Results were expressed as the mean optical density (OD)±the standard error of the mean triplicate cultures. The extent of cell viability was calculated as an average OD in experimental wells after addition of testing compounds in relation to untreated control wells, that was taken as 100%
# To evaluate the efficacy of preparations rhAFP/Ptx and Zn-rhAFP/Ptx we compared the cytotoxic effect of Ptx alone or that in combination with rhAFP or Zn-rhAFP for taxol-resistant human hepatoma HepG2 cells, human breast carcinoma cells MCF-7, and rat glioma C6 cell lines in vitro. RhAFP or Zn-rhAFP were incubated with various doses of Ptx at 37° C. for 1 h to allow complex formation with molecular ratios rhAFP:Ptx 1:1; 1:3 or 1:5 and thereafter the mixtures were introduced into the cell culture for 48 hrs. Cytotoxicity was measured by MTS assay.
# Various doses of rhAFP/Ptx complexes were tested for their effectiveness for inhibition of human mammary carcinoma MCF-7, human hepatoma HepG2, and rat glioma C6 tumor cell growth in vitro. First, we optimized drug concentration and rhAFP amount to the extent that it would not generate an extensive cytotoxic effect alone. Then, the cells were seeded in 96-well plates at a density of 3×10^3/well in 100 μl of medium for 24 hrs to allow adherence. The next day, rhAFP or Zn-rhAFP combined with Ptx at the molecular ratios of 1:1; 1:3 or 1:5 were added into the each well. After 48 h of incubation MTS assays were performed to determine survival rate of the cells. All the experiments were repeated at least three times. The results were expressed as mean±standard error (SE).
# The coefficient of drug interaction (CDI) was calculated to analyze the effects of rhAFP and Ptx combinations. CDI was calculated by the equation: CDI=SRAFP/drug[…]/SRAFP×SRdrug, where SRAFP/drug is the average survival rate of combination group, and SRAFP or SRdrug are the average survival rates of the single agent groups. According to our evaluation, CDI values <1, =1 or >1 indicate that the combinations are synergistic, additive or antagonistic respectively.
# The values of Zn-rhAFP/Ptx or rhAFP/Ptx complex concentration, which inhibited the cell viability by 50% (IC50) when compared to untreated control, were calculated according to the Hill's equation (sigmoid model of concentration-response curve) from the curves of dependence of the relative percentage of viable cells from AFP concentration expressed as mean values from three independent experiments±SD.
# In order to confirm the hypothesis that the combination of Zn-rhAFP and various low water-soluble chemotherapeutic agents would reveal increased anti-tumor efficacy, different cytotoxic compounds were tested in combination with Zn-rhAFP for their cell-killing effect in MCF-7 cells in vitro. […]
# NF-κB p65 = assay: Immunofluorescence of activated NF-κB p65 nuclear translocation in MCF-7 cells; type: cell-based, human; conditions: MCF-7, 2 h treatment
# Protocol: The cells were incubated with paclitaxel (10 μM) with addition of Zn-rhAFP (3.0 μM) and/or curcumin (3.0 μM) for 2 h and then assessed for localization of p65 by immunocytochemistry. Activated […] (p65) was detected by treatment of the cells with phospho […] p65 rabbit polyclonal antibody (Cell signaling technologies, USA) followed by secondary goat anti-rabbit Ab-Alexa594 red (Molecular Probes, USA). Cells were visualized at magnification ×400 by fluorescent microscope Axioplan; Zeiss (Germany) equipped with corresponding color filter kits.
# The relative amount of p65 in the cytosol and nucleus of the cells was assessed by ImageJ software and was taken as 100% in the control (cytosol+nucleus). Total amount of activated p65 in control untreated cells was taken as 100%. The experimental data are represented as percentage of control±SD from three independent calculations in various observation fields.
# MCF-7 cells were seeded on the microscopic plates Lab-Tek™ Chamber Slides (Thermo Fisher Scientific-Nunc, Germany) and cultivated at 37° C. at 5% CO2 atmosphere for 48 h to allow cell adaptation to reach 80% confluence. To test effects of chemotherapeutic preparations on the activation and translocation of NF-κB, cells were treated for 2 h with Ptx (10 nM), curcumin (30 μM); Zn-rhAFP (1.4 μM), or their combination Zn-rhAFP/Ptx/Cur, after which they were fixed with 100% ice-cold acetone. Control cells were incubated without additions and their NF-κB content was taken as 100%. Activated NF-κB was detected by treatment of the cells with phospho NF-κB p65 rabbit polyclonal antibody (Cell signaling technologies, USA) followed by the secondary goat anti-rabbit antibodies Ab-Alexa594 (Molecular Probes, USA). Nuclei were visualized by staining with DAPI (Molecular probes, USA). Cells were visualized at magnification ×400 by fluorescent microscope Axioplan (Zeiss, Germany) equipped with corresponding color filter kits. Distribution throughout the cell of the activated p65 was assessed by the ImageJ software and was taken as 100% in the control samples (cytosol+nucleus).
# [2] = Adiabatic scanning microcalorimetry of heat denaturation; type: physicochemical; conditions: protein 2.0 mg/ml in PBS pH 7.4; for ΔH (denaturation enthalpy): Zn/rhAFP 4/1, Ptx/rhAFP 1/1, Cur/rhAFP 1:1, error about ±6%; for Tmax (denaturation transition temperature): error ±0.5° C.
# [3] = test system: normal CBA mice splenocytes; assay: Unspecific toxicity against normal splenocytes, trypan blue staining; conditions: 48 h, standalone protein
# Protocol: Zn-rhAFP was prepared in a molecular ratio Zn:rhAFP=4:1. Viable cells were visualized by trypan blue staining. The data are expressed as percentage of viable cells in experimental cell cultures relative to untreated control. Mean of three independent experiments is shown.
# Viable cells were visualized by trypan blue staining.
# [4] = Example 3, MCF-7, 48 h, protein without drug, read-out: IC50, tumor suppressive effect of AFP species standalone
# [5] = Example 6, MCF-7, 48 h, protein without Ptx, read-out: cytostatic activity (IC50) standalone against MCF-7 cells
Molecule,Coefficient for drug interaction (CDI) [1],"IC50 [1, 4] [µM]",ΔT1/2 (half width of the denaturation transition peak) [2] [°C],ΔH (denaturation enthalpy) [2] [kcal/mol],Tmax (denaturation transition temperature) [2] [°C],further results
"N.N.[Cl][Pt][Cl] [Cisplatin, cisplatin]",0.93,,,,,
"COc1cc(/C=C/C(=O)CC(=O)/C=C/c2ccc(O)c(OC)c2)ccc1O [Curcumin, curcumin]",0.88,,,,,effect on activated p65 (RelA) in the cell nucleus (NF-κB p65): significant decrease of activated RelA in the cell nucleus
"CC(C)=CCC/C(C)=C/C=C/C(C)=C/C=C/C(C)=C/C=C/C=C(C)/C=C/C=C(C)/C=C/C=C(\C)CCC=C(C)C [Lycopene, lycopene]",0.71,,,,,
"Oc1ccc(C=Cc2cc(O)cc(O)c2)cc1 [Resveratrol, resveratrol]",0.72,,,,,
"COc1cc([C@@H]2c3cc4c(cc3[C@@H](O[C@@H]3O[C@@H]5CO[C@@H](C)O[C@H]5[C@H](O)[C@H]3O)[C@H]3COC(=O)[C@H]23)OCO4)cc(OC)c1O [Etoposide, etoposide]",0.86,,,,,
"O=c1c(-c2ccc(O)cc2)coc2cc(O)cc(O)c12 [Genistein, genistein]",0.82,,,,,
"COc1cccc2c1C(=O)c1c(O)c3c(c(O)c1C2=O)C[C@@](O)(C(=O)CO)C[C@@H]3O[C@H]1C[C@H](N)[C@H](O)[C@H](C)O1 [Doxorubicin, doxorubicin]",0.66,,,,,
B1,,2.5,5.9,171,74.3,"IC50 [1, 5]: 5.2 µM; effect on activated p65 (RelA) in the cell nucleus (NF-κB p65): significant decrease of activated RelA in the cell nucleus; dose-dependent stimulation of growth of the normal splenocytes [3]: 40 % of control"
B2,,3,5.8,189,80.2,
B3,,3.5,7.0,166,71.9,"IC50 [1, 5]: 6.1 µM; dose-dependent stimulation of growth of the normal splenocytes [3]: 40 % of control"
